Literature values, collected in publication PMC1074345.

Molecular target: Angiotensin II AngII (Homo sapiens) (UniProt P01019)
Assay: radioligand

UniProt P01019, sequence (P01019 whole entry, looked up): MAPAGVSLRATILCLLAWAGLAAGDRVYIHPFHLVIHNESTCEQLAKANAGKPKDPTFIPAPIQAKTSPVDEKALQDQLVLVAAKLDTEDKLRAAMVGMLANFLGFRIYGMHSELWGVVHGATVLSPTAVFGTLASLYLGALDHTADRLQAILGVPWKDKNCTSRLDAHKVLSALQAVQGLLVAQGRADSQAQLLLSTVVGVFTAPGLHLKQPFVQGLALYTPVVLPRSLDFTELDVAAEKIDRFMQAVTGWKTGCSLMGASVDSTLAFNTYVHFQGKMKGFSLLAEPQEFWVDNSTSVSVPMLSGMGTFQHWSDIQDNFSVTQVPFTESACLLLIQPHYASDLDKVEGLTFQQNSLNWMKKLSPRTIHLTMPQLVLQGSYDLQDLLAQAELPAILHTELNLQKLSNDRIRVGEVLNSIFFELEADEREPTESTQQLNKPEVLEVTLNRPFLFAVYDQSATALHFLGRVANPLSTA

| Kd [pM] | Substance |
| --- | --- |
| 170 | AT2 receptor (from UniProt P50052) |
| 360 | AT1 receptor (from UniProt P30556) |
